Assay results taken from patent US20250222126A1 (ARIZONA BOARD OF REGENTS ON BEHALF OF ARIZONA STATE …, published 2025).
Like-named read-outs stand apart in the source and are kept apart here.

Experiments:
[1] = target: Spike Delta (SARS-CoV-2)
[2] = target: T1, Spike Delta (SARS-CoV-2); assay: SPR, Delta spike as solid phase [panel C]
T1 construct: also called Delta spike; delta spike protein

Binder | Kd [1] [nM] | Kd [2] [nM]
1-Arm (designed binder) LCB1 mini-binder coupled to a DNA handle that is hybridised to one arm of a 3-helix-bundle DNA nanostructure: DKEWILQKIYEIMRLLDELGHAEASMRVSDLIYEFMKKGDERLLEEAERLLEEVER | 0.14 | 
2-Arm (designed binder) LCB1 mini-binder coupled to a DNA handle that is hybridised to an arm of a 3-helix-bundle DNA nanostructure: DKEWILQKIYEIMRLLDELGHAEASMRVSDLIYEFMKKGDERLLEEAERLLEEVER | 0.14 | 
Tri-pdbody (designed binder, also called 3-Arm; 3arm) LCB1 mini-binder coupled to a DNA handle that is hybridised to an arm of a 3-helix-bundle DNA nanostructure: DKEWILQKIYEIMRLLDELGHAEASMRVSDLIYEFMKKGDERLLEEAERLLEEVER | 0.1 | 0.216
